Experimental data: patent US7396682B2, “Method for cell adhesion and wound healing” (Regen Biotech, Inc., priority 2000, dated 2008)

Key:
HCE cells [1] = assay: Divalent cation sensitivity of βig-h3-mediated adhesion; assay type: cell-based, human; conditions: cells incubated 30 min with divalent cations in HBS
Experimental: To analyze the divalent cation sensitivity of βig-h3-mediated adhesion, cells were suspended in HEPES-buffered saline (HBS) (150 mM NaCl, 25 mM HEPES, 2 mM EDTA, pH 7.4) at a density of 2×10^5 cells/ml and incubated at 37° C. for 30 min. Then, they were washed twice in HBS and resuspended in the same buffer. Aliquots of cells (50 μl) were then added to the microculture plate wells and incubated for 30 min at 37° C. in a humidified atmosphere of 5% CO2 with 50 μl aliquots of HBS containing divalent cations (MnCl2, MgCl2 or CaCl2) at a concentration twice as large as the final concentration. Subsequently, they were plated on ligand-coated dishes to perform the adhesion assay.

[2] = tested on: Human corneal epithelial (HCE) cells; assay: HCE cell adhesion and spreading assay on protein-coated plates; assay type: cell-based; conditions: HCE cells on coated protein, 1 hour at 37° C.
Experimental: Human corneal epithelial (HCE) cells used in this assay were cultured in DMEM ([…], Gibco BRL) supplemented with 15% fetal bovine serum, Gentamicin (40 μg/ml), insulin (5 μg/ml), cholera toxin (0.1 μg/ml) and human epidermal growth factor (hEGF) at 37° C. in 5% CO2.
The cell adhesion assay was performed as follows. First, the recombinant βig-h3 proteins or other extracellular matrix proteins were let to adhere to the bottoms of 96-well microculture plates (Falcon) by incubation at 37° C. for 1 hour and blocked with PBS containing 0.2% BSA. The coated extracellular matrix proteins were human plasma vitronectin (Promega), purified human plasma fibronectin (pFN), chicken collagen types I and II (Chemicon International Inc.), bovine collagen types IV and VI (Chemicon), mouse laminin (Chemicon), and bovine serum albumin (BSA) (Sigma). Cells were trypsinized and suspended in the culture media at a density of 2×10^5 cells/ml. 0.1 ml of the cell suspension was added to each well of the plates coated with the recombinant proteins.
Following incubation at 37° C. for 1 hour, unattached cells were removed by rinsing with PBS. Attached cells were incubated for 1 hour at 37° C. in 50 mM citrate buffer, pH 5.0, containing 3.75 mM p-nitrophenol-N-acetyl 1-β-D-glycosaminide as a hexosaminidase substrate and 0.25% Triton X-100, followed by the addition of 50 mM glycine buffer, pH 10.4, containing 5 mM EDTA to block the enzyme activity. A measurement was made of absorbance at 405 nm in a Multiskan MCC/340 microplate reader.
To determine cell area as an index for cell adhesion activity, 4×10^4 cells were applied to substrates in 48-well culture plates. The attached cells were fixed weith 8% glutaraldehyde (Sigma) and then stained with 0.25% Crystal Violet (Sigma) in 20% methanol. Measurement of cell areas was performed by Image-Pro plus software (Media Cybernetics). Experiments were repeated in triplicate with 200 or 300 measurements per site for each experiment. Data is reported as the mean area at specific time points±standard error of mean.

K562 cells = assay: K562 cell adhesion to coated proteins (hexosaminidase analysis); assay type: cell-based; conditions: 1 hour
Experimental: For another control experiment, K562 cells, known to express α5, but not α3 integrin, were used. K562 cells were inoculated onto plates coated with βigh3-WT, fibronectin, laminin, or type I collagen and incubated for 1 hour, followed by the hexosaminidase analysis.

HCE cells [3] = assay: Inhibition assay of HCE cell adhesion using matrix peptides and reagents; assay type: cell-based, human; conditions: HCE cells preincubated 30 min with reagent
Experimental: In order to identify cell surface receptors involved in the cell adhesion activity of βig-h3 protein, an inhibition assay was performed using various reagents.
Initially, plastic culture dishes were coated with 10 μg/ml fibronectin, βigh3-WT or βigh3-ΔRGD. HCE cells were preincubated for 30 min in media containing 5 mM EDTA, 100 μg/ml βigh3-WT, 100 μg/ml βigh3-ΔRGD, 1 mM RGD, 1 mM RGE or 100 μg/ml fibronectin, or none of them, and then assayed for cell adhesion as in Example 1.

Molecule: [Ca+2].[Cl-].[Cl-] [Ca^2+, CaCl2]
- promotion of cell adhesion to βig-h3 by divalent cations (HCE cells [1]): only marginally

Molecule: [Cl][Mn][Cl] [Mn^2+, MnCl2]
- promotion of cell adhesion to βig-h3 by divalent cations (HCE cells [1]): strongly promoted

B1: βigh3-WT: wild-type human recombinant βig-h3 protein (SEQ ID NO: 22) (protein, UniProt Q15582 24-683, looked up)
Transforming growth …: GPAKSPYQLVLQHSRLRGRQHGPNVCAVQKVIGTNRKYFTNCKQWYQRKICGKSTVISYECCPGYEKVPGEKGCPAALPLSNLYETLGVVGSTTTQLYTDRTEKLRPEMEGPGSFTIFAPSNEAWASLPAEVLDSLVSNVNIELLNALRYHMVGRRVLTDELKHGMTLTSMYQNSNIQIHHYPNGIVTVNCARLLKADHHATNGVVHLIDKVISTITNNIQQIIEIEDTFETLRAAVAASGLNTMLEGNGQYTLLAPTNEAFEKIPSETLNRILGDPEALRDLLNNHILKSAMCAEAIVAGLSVETLEGTTLEVGCSGDMLTINGKAIISNKDILATNGVIHYIDELLIPDSAKTLFELAAESDVSTAIDLFRQAGLGNHLSGSERLTLLAPLNSVFKDGTPPIDAHTRNLLRNHIIKDQLASKYLYHGQTLETLGGKKLRVFVYRNSLCIENSCIAAHDKRGRYGTLFTMDRVLTPPMGTVMDVLKGDNRFSMLVAAIQSAGLTETLNREGVYTVFAPTNEAFRALPPRERSRLLGDAKELANILKYHIGDEILVSGGIGALVRLKSLQGDKLEVSLKNNVVSVNKEPVAEPDIMATNGVVHVITNVLQPPANRPQERGDELADSALEIFKQASAFSRASQRSVRLAPVYQKLLERMKH
- cell adhesion and spreading activity (numbers and surface areas of attached HCE cells) [2]: clearly greater than those attached to albumin
- adhesion of K562 cells to coated protein (K562 cells): did not adhere
- inhibition of cell adhesion to fibronectin (HCE cells [3]; dishes coated with 10 μg/ml fibronectin): partially inhibited
- inhibition of cell adhesion to βig-h3 (HCE cells [3]; dishes coated with 10 μg/ml βig-h3): significantly inhibited
